Results reported in the supplement of paper PMC10567573.

B1: MYL5 (parent)
chain: DVAGNLDYKALSYVITHGEEKEE
B2: PDZK1 (parent)
chain: FQAKKIPIVSSLADPLDTPPDSKE
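Also: lentivirally expressed fusions sorted by FACS into six bins by GFP to DsRed ratio, PSI derived from sequencing read proportions per bin multiplied by bin number.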

Variants of: B1
Assay: protein stability index of a GFP-peptide fusion (GPS, HEK-293T) (PSI 1-6); higher = more stable
Details: c terminus: native
For DVAGNLDYDALSYVITHGEEKEE [K9D], the protein stability index was 2.57.
DVAGNLDYYALSYVITHGEEKEE [K9Y] showed a protein stability index of 2.3.
With DVAGNLDYFALSYVITHGEEKEE [K9F] the protein stability index was 2.23.
In the case of DVAGNLDYAALSYVITHGEEKEE [K9A], the protein stability index is reported as 2.29.
With DVAGNLDYKILSYVITHGEEKEE [A10I] the protein stability index was 2.24.
DVAGNLDYKELSYVITHGEEKEE [A10E] showed a protein stability index of 2.35.
In the case of DVAGNLDYKTLSYVITHGEEKEE [A10T], the protein stability index is reported as 1.9.
DVAGNLDYKALPYVITHGEEKEE [S12P] showed a protein stability index of 2.46.
Variant DVAGNLDYKALRYVITHGEEKEE [S12R] has a protein stability index of 1.99.
Work on DVAGNLDYKALNYVITHGEEKEE [S12N] yielded a protein stability index of 2.77.
DVAGNLDYKALAYVITHGEEKEE [S12A] showed a protein stability index of 1.72.
With DKAGNLDYKALSYVITHGEEKEE [V2K] the protein stability index was 1.82.
DPAGNLDYKALSYVITHGEEKEE [V2P] showed a protein stability index of 1.67.
With DAAGNLDYKALSYVITHGEEKEE [V2A] the protein stability index was 1.64.
For DIAGNLDYKALSYVITHGEEKEE [V2I], the protein stability index was 2.61.
DGAGNLDYKALSYVITHGEEKEE [V2G] showed a protein stability index of 2.06.
For DSAGNLDYKALSYVITHGEEKEE [V2S], the protein stability index was 1.82.
For DVAGNLDYKALSYVITHGDEKEE [E19D], the protein stability index was 2.23.
In the case of DVAGNLDYKALSQVITHGEEKEE [Y13Q], the protein stability index is reported as 2.33.
DVAGNLDYKALSMVITHGEEKEE [Y13M] gave a protein stability index of 2.08.
For SVAGNLDYKALSYVITHGEEKEE [D1S], the protein stability index was 2.46.
For AVAGNLDYKALSYVITHGEEKEE [D1A], the protein stability index was 2.07.
In the case of DVAGNLDYKALSYVITHIEEKEE [G18I], the protein stability index is reported as 2.42.
Variant DVAGNLDYKALSYVITHEEEKEE [G18E] has a protein stability index of 2.1.
Work on DVAGNLDYKALSYVITHPEEKEE [G18P] yielded a protein stability index of 1.12.
In the case of DVAGNLDYKALSYVITHFEEKEE [G18F], the protein stability index is reported as 1.88.
With DVAGNLDYKALSYDITHGEEKEE [V14D] the protein stability index was 2.97.
For DVAGNLDYKALSYCITHGEEKEE [V14C], the protein stability index was 2.07.
In the case of DVAGNLDYKALSYVIVHGEEKEE [T16V], the protein stability index is reported as 2.35.
Variant DVAGNLDYKALSYVINHGEEKEE [T16N] has a protein stability index of 3.03.
For DVAGNLDYKALSYVIIHGEEKEE [T16I], the protein stability index was 2.33.
Variant DVAGNLKYKALSYVITHGEEKEE [D7K] has a protein stability index of 3.18.
In the case of DVAGNLTYKALSYVITHGEEKEE [D7T], the protein stability index is reported as 1.57.
Variant DVAGNLAYKALSYVITHGEEKEE [D7A] has a protein stability index of 1.89.
DVAGNLFYKALSYVITHGEEKEE [D7F] gave a protein stability index of 1.04.
DVAGNLDYKALSYVITHGEEKPE [E22P] showed a protein stability index of 4.22.
In the case of DVAGNLDYKALSYVITHGEEKHE [E22H], the protein stability index is reported as 4.65.
DVAGNLDYKALSYVITHGEEKLE [E22L] gave a protein stability index of 4.25.
Work on DVAGNLDYKALSYVITHGEEKFE [E22F] yielded a protein stability index of 4.43.
DVAGNLDYKALSYVITHGEEMEE [K21M] gave a protein stability index of 1.98.
In the case of DVAGNLDYKALSYVITHGEESEE [K21S], the protein stability index is reported as 1.52.
For DVAGNLDYKALSYVITHGEEEEE [K21E], the protein stability index was 3.8.
DVAGNLDYKALSYVITHGEETEE [K21T] showed a protein stability index of 2.05.
For DVAGGLDYKALSYVITHGEEKEE [N5G], the protein stability index was 2.88.
DVAGELDYKALSYVITHGEEKEE [N5E] showed a protein stability index of 2.43.
For DVAGLLDYKALSYVITHGEEKEE [N5L], the protein stability index was 3.25.
DVAGHLDYKALSYVITHGEEKEE [N5H] gave a protein stability index of 1.92.
Work on DVAGWLDYKALSYVITHGEEKEE [N5W] yielded a protein stability index of 1.83.
For DVAGVLDYKALSYVITHGEEKEE [N5V], the protein stability index was 2.05.
Work on DVAGNLDYKALSYVITHGEMKEE [E20M] yielded a protein stability index of 1.77.
Work on DVAGNLDYKALSYVITHGETKEE [E20T] yielded a protein stability index of 2.31.
DVAGNLDYKALSYVITHGEVKEE [E20V] showed a protein stability index of 1.27.
Work on DVAGNLDYKALSYVITHGEFKEE [E20F] yielded a protein stability index of 2.78.
Variant DVAGNLDYKALSYVITHGECKEE [E20C] has a protein stability index of 1.47.
Work on DVADNLDYKALSYVITHGEEKEE [G4D] yielded a protein stability index of 1.82.
For DVASNLDYKALSYVITHGEEKEE [G4S], the protein stability index was 2.09.
In the case of DVAPNLDYKALSYVITHGEEKEE [G4P], the protein stability index is reported as 1.61.
DVAGNLDVKALSYVITHGEEKEE [Y8V] showed a protein stability index of 2.62.
Work on DVAGNLDCKALSYVITHGEEKEE [Y8C] yielded a protein stability index of 2.32.
DVAGNLDYKAKSYVITHGEEKEE [L11K] showed a protein stability index of 2.08.
Variant DVAGNLDYKASSYVITHGEEKEE [L11S] has a protein stability index of 1.36.
Work on DVAGNLDYKAISYVITHGEEKEE [L11I] yielded a protein stability index of 1.93.
For DVAGNLDYKAHSYVITHGEEKEE [L11H], the protein stability index was 2.75.
Work on DVAGNLDYKAMSYVITHGEEKEE [L11M] yielded a protein stability index of 1.15.
DVAGNLDYKANSYVITHGEEKEE [L11N] gave a protein stability index of 2.23.
With DVAGNLDYKALSYVITHGEEKEY [E23Y] the protein stability index was 3.97.
Variant DVAGNLDYKALSYVITHGEEKEP [E23P] has a protein stability index of 2.26.
In the case of DVAGNLDYKALSYVITHGEEKEH [E23H], the protein stability index is reported as 2.67.
Work on DVAGNLDYKALSYVITHGEEKEL [E23L] yielded a protein stability index of 2.42.
Work on DVPGNLDYKALSYVITHGEEKEE [A3P] yielded a protein stability index of 1.83.
For DVEGNLDYKALSYVITHGEEKEE [A3E], the protein stability index was 2.1.
Variant DVQGNLDYKALSYVITHGEEKEE [A3Q] has a protein stability index of 1.75.
For DVVGNLDYKALSYVITHGEEKEE [A3V], the protein stability index was 1.97.
For DVAGNYDYKALSYVITHGEEKEE [L6Y], the protein stability index was 1.93.
DVAGNNDYKALSYVITHGEEKEE [L6N] showed a protein stability index of 3.84.
With DVAGNKDYKALSYVITHGEEKEE [L6K] the protein stability index was 2.06.
For DVAGNVDYKALSYVITHGEEKEE [L6V], the protein stability index was 1.36.
In the case of DVAGNLDYKALSYVITEGEEKEE [H17E], the protein stability index is reported as 2.25.
DVAGNLDYKALSYVITDGEEKEE [H17D] gave a protein stability index of 2.89.
DVAGNLDYKALSYVITQGEEKEE [H17Q] gave a protein stability index of 1.96.
For DVAGNLDYKALSYVPTHGEEKEE [I15P], the protein stability index was 2.16.
Variant DVAGNLDYKALSYVETHGEEKEE [I15E] has a protein stability index of 3.02.
DVAGNLDYKALSYVATHGEEKEE [I15A] showed a protein stability index of 2.1.
With DVAGNLDYKALSYVCTHGEEKEE [I15C] the protein stability index was 2.95.
Variant DVAGNLDYKALSYVLTHGEEKEE [I15L] has a protein stability index of 1.89.

Variants of: B2
Assay: as above
Details: c terminus: a fixed tail appended
Variant FQAKKIPIVSSLADPLDTPGDSKE [P20G] has a protein stability index of 4.28.
In the case of FQAKKIPIVSSLADPLDTPNDSKE [P20N], the protein stability index is reported as 3.7.
FQAKKIPIVSSLADPLDTPADSKE [P20A] gave a protein stability index of 4.05.
FQAKKIPIVSSLADPLDTPVDSKE [P20V] showed a protein stability index of 3.74.
With FQAKKIPIVSSLADPLDTPQDSKE [P20Q] the protein stability index was 3.73.
FQAKKIPIVSSLADPLDTPKDSKE [P20K] showed a protein stability index of 3.88.
In the case of FQAKKIPIVSSLADPLDTPTDSKE [P20T], the protein stability index is reported as 3.58.
FQAKKIPIVSSLADPLDTPRDSKE [P20R] gave a protein stability index of 3.77.
In the case of FQAKKIPIVSSLADPLDTPLDSKE [P20L], the protein stability index is reported as 3.35.
In the case of FQAKKIPIVSSLADPLDTPHDSKE [P20H], the protein stability index is reported as 3.53.
